According to article PMC8528861, “Structural and functional analysis of target recognition by the lymphocyte adaptor protein LNK” (Nature Communications, 2021):
Where no end group is shown, it is not given here. [ ]: non-standard residue; d: D form. pY = N[C@@H](Cc1ccc(OP(=O)(O)O)cc1)C(=O)O

B1: JAK2 pY813 peptide mutant +1R (peptide)
chain: FTPD[pY]RLLTEND
B2: EPOR pY454 phosphopeptide (peptide)
peptide: PHLK[pY]LYLVVS
modifications: also: phosphotyrosine at 454 (Y5 or Y7)
notes: EPOR, intracellular site Y454
B3: JAK2 pY813 phosphopeptide (12-mer) (peptide)
peptide: FTPD[pY]ELLTEND
notes: JAK2, stretch around Y813; also called WT pY813 peptide
B4: MPL pY631 phosphopeptide (peptide)
peptide: LPLS[pY]WQQP
notes: MPL (TPO receptor), intracellular site Y631; also called TPOR pY631

Assays:
[1] = molecular target: T1, M. musculus LNK SH2 domain (residues 324–446), wild type (mouse, UniProt O09039 324-446); assay: SPR; competition: biotinylated IL6ST pY757 peptide immobilised on a streptavidin chip; 0.1–0.5 μM WT LNK SH2 domain pre-incubated with phosphopeptide and flowed over; 10 mM HEPES pH 7.4, 150 mM NaCl, 3.4 mM EDTA, 0.005% Tween 20; response normalised to LNK only, IC50 fit; settings: both partners purified
T1 construct: LNK (SH2B3), mouse, SH2 domain with N-terminal helix, residues 324-446; vector pET-50b(+); also called WT LNK SH2; SH2B3 SH2 domain; source: E. coli (tuner (DE3), BL21(DE3) or C43), purified (His-Tag resin, TEV cleavage, SEC); not shown: NusA, N-terminal, cleaved

[2] = molecular target: T1, M. musculus LNK SH2 domain (residues …); assay: as above; settings: both partners purified; remark: listed apart in the source

T1 sequence (O09039 324-446): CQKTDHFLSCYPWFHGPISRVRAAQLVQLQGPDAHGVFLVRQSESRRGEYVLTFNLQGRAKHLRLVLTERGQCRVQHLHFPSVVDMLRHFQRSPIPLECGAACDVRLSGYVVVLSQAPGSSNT

| Binder | IC50 [1] [nM] | IC50 [2] [nM] |
| --- | --- | --- |
| B1 | > 5000 | – |
| B2 | – | 661 |
| B3 | 60 | 138 |
| B4 | – | > 10000 |
